Target: Adnectin C-PAS#1(200)
Assay: SPR; Biacore X100, 25 °C, HBS-EP buffer pH 7.4, CM5 chip; His-tagged Adnectins captured on amine-coupled anti-His antibody (about 300 RU); rhVEGFR2 injected at 50-3.125 ug/ml; multi cycle kinetics, contact 180 s, dissociation 500 s

Kd: 0.159 nM | koff: 2.48e-05 s⁻¹ | kon: 156000 M⁻¹ s⁻¹
Substance: rhVEGFR2 (Genescript) (from UniProt P35968 20-764) (receptor)
